{"source": "IntAct's records for PubMed 19379692", "parents": {"B1": {"name": "SET domain-containing protein 3 (Saccharomyces cerevisiae), P36124 (parent)", "chain": "MSVPNSKEQSLLDDASTLLLFSKGKKRAEEASKIGSKTDTIEHDESHEREKKGAIEMAAAALATASTVSLPLKKATEQSAAEAATSTAAKEETENQPQKQPQWPVPDSYIVDPDAGIITCICDLNDDDGFTIQCDHCNRWQHAICYGIKDIGMAPDDYLCNSCDPREVDINLARKIQQERINVKTVEPSSSNNSASNKNNGRDRASSTTISDVGDSFSTDQDNTNHRDKRRKRNPSNNSIDSKNESASVNSSDGLTSMPKKKEHFLSAKDAYGAIYLPLKDNVFKSDLIEPFLNKHMDDNWVIQYPHKTFKSVSIEVKPYADIAYSRTYPGFTKLGVYLKKDCIKGDFIQEILGELDFYKNYLTDPRNHYRIWGTAKRRVIFHSHWPIYIDARLSGNSTRYLRRSCQPNVELVTIKLQDTDNRNDKSSGRKSSRIKFVLRALRDISEDEELYIKWQWDSKHPILKLIKGMTIDSLDDLERYGLINSVETILSNGECGCGNNSKDCYLLKVKRYAQSLYKSVKSRGKMNNRYKLNEILNQYNCKKRREPPILHRLEEKAQNTIERAPILLNNFYRQKFLNRNNGPKIPQKNTIDSTNNPDDIAKPFKFALFAQHSSNISVPKKNETSEKPLIITKSTDYDESHITNIEELPIPVLLPINKTSRQTANDVEESQSKNEHKLSRTPSLSNFNKELSKEAQHSQAKTKEIMTEASVNSRRESTPESIMHLSDFSSSQLHSKKKLSFADYRKKLLK"}}}
{"variants_of": "B1", "conditions": "with h4_yeast HHF1, P02309"}
{"variant": "W140A", "effect of a mutation on the interaction": "decreasing interaction"}
